Measurements taken from the supplement of paper PMC12042874.
± gives the uncertainty stated by the source.

Assay: amyloid nucleation score (Sup35N fusion, yeast selection) (log enrichment); library NNK2; higher = more nucleation; inactive = no reads after selection
Method in brief: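 Peptides of 20 random codons fused to Sup35N were expressed in psi-negative yeast, induced 24 hours with 100 μM copper sulfate, then grown 7 days at 30°C on medium lacking adenine and uracil. Input and output plasmid inserts were Illumina-sequenced. Nucleation score is the DiMSum log enrichment of output over input reads, centred on the mode score of non-aggregating sequences, excluding sequences with under 100 input reads. Random libraries had three technical output replicates.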

| Substance | amyloid nucleation score |
| --- | --- |
| IKSIT | -0.388 ± 1 |
| IKVAEGSLVCARYGRMVRLE | 4.92 ± 0.053 |
| IKWRSFPDSYLENFEFI | -1.6 ± 1.1 |
| IKYLKCIVMCRFFVHWSSIV | -1.06 ± 0.76 |
| ILAVRQV | 0.054 ± 0.79 |
| ILAYPFRCIETNSLLKMSPL | 0.402 ± 0.8 |
| ILEACREAARPAITFSFFTK | -1.04 ± 1.1 |
| ILFGFSLPGSCDNWDRDAKG | -1.15 ± 0.78 |
| ILFGIPN | -0.314 ± 0.24 |
| ILFIIWGHLRYVRIVSYVGY | -1.48 ± 0.62 |
| ILGDNRLKPVTLSRNVALYY | -1.18 ± 0.78 |
| ILGQAGMILFNKLAPRGALR | inactive |
| ILGVLGFGGSRDRLSTRWGS | 1.66 ± 0.16 |
| ILKGNNSS | -1.2 ± 0.62 |
| ILLFQSAYHKSIEIWGNESF | 4.21 ± 0.043 |
| ILLNEVFDRTWSELPGCNCT | 0.043 ± 0.21 |
| ILLTFVPAEKSWTSAIL | 0.058 ± 0.55 |
| ILNYSWALRVIDFTHRKVFS | -0.376 ± 0.2 |
| ILRCICRNILSSSRVRCSYH | inactive |
| ILSHTGRVYKLRLYVIQIVR | -0.434 ± 0.61 |
| ILSLMLRSVWRSVLLVLQ | inactive |
| ILTIALVRFSLSRWRLPWPY | 1.36 ± 0.29 |
| ILVHVSFDNRFN | 6.06 ± 0.077 |
| ILWDTIREVHVHADMDMAPN | -0.782 ± 0.61 |
| IMMWFYPARTRQELASYEDQ | 2.12 ± 0.089 |

| Substance | amyloid nucleation score |
| --- | --- |
| IMNKVAWWIFMRMLSRGFVT | -1.1 ± 0.54 |
| IMPVMLERTGLSGLMCNGWG | -0.315 ± 0.65 |
| IMRCGMLVASKFQGEGRNRT | 0.747 ± 0.43 |
| INCFSLLEPLEYFSRLCQQR | -0.276 ± 0.55 |
| INFGWCFYMTRRWVCGMVFR | 0.106 ± 1 |
| INGPCVYFNFL | 6.425 ± 0.057 |
| INTSELNVFRS | inactive |
| INVSVFVVFRNRQRLKC | 7.363 ± 0.058 |
| IPALN | -0.963 ± 0.55 |
| IPASDRYKVFRLWHQFRLVG | -0.001 ± 0.56 |
| IPGVLLTYVIISRAPGGIPD | -0.545 ± 0.64 |
| IPNSGRGWSPAWPKMALTYS | 0.746 ± 0.24 |
| IPQEYPSDSMDVVMYISTLV | -0.016 ± 0.79 |
| IPTSYSRPITIWGYR | -1.3 ± 0.64 |
| IPVSMWQDRVTEVLDFGLRK | 0.389 ± 0.8 |
| IPYGMSWTWSH | -0.565 ± 0.3 |
| IPYYIDKKQSKMCNGFWS | 0.572 ± 0.57 |
| IQKVVIVYSHDVYSDQ | 6.737 ± 0.048 |
| IQLDTESSLVKRRAWYG | 0.34 ± 0.64 |
| IQRPADRIQHMTMWHTQDLV | 1.14 ± 0.37 |
| IQSFVKYKNVSRMYLTCPNL | 1.2 ± 0.2 |
| IQTHSSSWG | -0.288 ± 1 |
| IQVMSDMFKCDVTNVMGRRG | 2.99 ± 0.094 |
| IRFANVPSRNKFH | 0.486 ± 0.36 |
| IRFNAYLRDEDYSKIREVLG | -1.41 ± 0.54 |

| Substance | amyloid nucleation score |
| --- | --- |
| IRGYYYGMRYSDWGSC | -0.06 ± 0.31 |
| IRKALNASVLKLT | 1.1 ± 0.36 |
| IRLTRY | -0.338 ± 0.35 |
| IRSKSWVVDTQFRPIDSLLV | 0.646 ± 0.49 |
| IRVFSDGAFKTEFTTKATLL | 0.328 ± 0.65 |
| IRVGICAVDGPACKRLYSCM | -0.176 ± 0.35 |
| IRVRGFPSSHRSV | -0.901 ± 0.78 |
| ISDFQACIRGDRWDEKGYIS | inactive |
| ISDKSVV | inactive |
| ISECR | -0.432 ± 1.1 |
| ISFMQGDCRWHQVNSLQRIM | -0.94 ± 0.54 |
| ISFWSHSDTFVGNEGEHSVR | 1.29 ± 0.42 |
| ISFYQWRPWNFLRYRRGNAH | 0.237 ± 0.31 |
| ISGTHLCSRFYIRYALCGLK | 4.66 ± 0.079 |
| ISHISDL | 4.61 ± 0.072 |
| ISIVYNSAMSIHHDFLILLC | 5.32 ± 0.094 |
| ISNGYPVDRHSWVNILSLT | 1.23 ± 0.47 |
| ISPISLTISLLIGYTSGCLR | 3.15 ± 0.066 |
| ISPLIG | 0.33 ± 0.49 |
| ISSDLWVHSFNTILSENGVC | -0.674 ± 0.63 |
| ISSYEVELDALIVWGDTSSG | 0.006 ± 0.49 |
| ISTMSGPFVSRLWYSAYNTA | -0.345 ± 0.64 |
| ISYIIKILRKVVSWDNDMEV | -1.25 ± 0.45 |
| ITINSMSPRLPIRLRVVWKG | inactive |
| ITPMFPCLVVWWWESR | -0.235 ± 0.61 |

| Substance | amyloid nucleation score |
| --- | --- |
| ITQRFKTWRCGGGDEVRQAN | 0.239 ± 0.49 |
| ITYGKVLR | 0.379 ± 0.44 |
| ITYLWYISVLYREMPLCCAS | 0.237 ± 0.25 |
| IVACGCVSVSRRSLP | 3.09 ± 0.059 |
| IVCWTMVVDLIVDQMLTAYR | 1.03 ± 0.28 |
| IVGHRVLACVRPRRVVTRYG | 0.118 ± 0.63 |
| IVHQGLLIRPIDGVGRLTLS | 4.05 ± 0.1 |
| IVKFKKRVDRHLSSGDQLVR | 1.19 ± 0.61 |
| IVLSDSISQAFWASICHQGF | -1.55 ± 1.1 |
| IVMVPFLTIPVLYLVVMSSL | -0.788 ± 1.1 |
| IVQLWIWGVVPPFSDISHAL | 7.866 ± 0.05 |
| IVQSSTAKHEDQVFGKKV | 1.24 ± 0.61 |
| IVRRGAYSTGWMVMMLLQSL | 0.859 ± 0.8 |
| IVRVIMYLCGNLLVNRWGNA | 0.082 ± 1.1 |
| IVSVFQYRTVNIFVGFYYIR | inactive |
| IVWLMHSSSHRT | 5.79 ± 0.076 |
| IWDEQCRTLCGARCNDVSAW | 0.799 ± 0.3 |
| IWGCKELLDVRTAQGVDGM | 3.87 ± 0.078 |
| IWGGFYS | -1.29 ± 0.75 |
| IWTTYFMGLRT | -0.394 ± 0.78 |
| IYDCDTTMVSNNMRYILVLH | -0.858 ± 0.33 |
| IYKILLLLAGRRGFDCLVFS | -0.926 ± 0.74 |
| IYLCTDSLSYRSFVRGN | 1.18 ± 0.17 |
| IYLTSIYRQFSMLLLGSRTE | inactive |
| IYMRRCSVLGSHCH | 0.081 ± 1.1 |

| Substance | amyloid nucleation score |
| --- | --- |
| IYNMRHSMTMFHCYGFLRRV | -0.976 ± 0.63 |
| IYPSVRYPMYAITKRYSRVG | -0.769 ± 0.28 |
| IYREVYAL | inactive |
| IYVFGIGTYMVTQFLCSTTI | 6.909 ± 0.031 |
| IYWLSYQTMVPIQAVYIHRC | -0.087 ± 0.42 |
| IYYLRLWSM | inactive |
| KAGESWTEGDSAVWGFLRLE | 0.942 ± 0.81 |
| KAKLMKRSFWMWSCLLCFR | 0.912 ± 0.74 |
| KASTRQ | 1.51 ± 0.34 |
| KATWS | -1.2 ± 0.76 |
| KCHCRAMS | inactive |
| KCRLSIF | inactive |
| KCVVKELYWLWFHLSSVNLY | -1.23 ± 1.1 |
| KCYQSFNNADALM | -0.627 ± 0.33 |
| KDGEVAAMPGRGVHQVMGEK | 0.325 ± 0.49 |
| KDLGA | 3.08 ± 0.13 |
| KDPLNYNSYSVLLDIWWNLS | 1.57 ± 0.15 |
| KELLMAIASWSRLSGDIAVD | -0.86 ± 0.78 |
| KFGSWDHSACYSRWYSKSFV | -0.012 ± 1.1 |
| KFIFTSLAN | -0.425 ± 0.61 |
| KFIPLINIRTQL | inactive |
| KFSKIRFAFIIFGSKPYMRV | -0.875 ± 0.49 |
| KFWLCDEGYWWNVASGLSSV | 0.845 ± 0.32 |
| KGGAARSVWISMCFFKAFYR | -0.358 ± 1 |
| KGGSRLCNFRSATKLSGPLL | 0.597 ± 0.46 |

| Substance | amyloid nucleation score |
| --- | --- |
| KGRGEMSLLFYSILLVGFCL | inactive |
| KHMNAYCNVTYQIDFRCIIS | inactive |
| KHMYYYCLYANELQVAVEMN | -0.235 ± 0.45 |
| KIFSSF | -1.01 ± 1.1 |
| KIIISYGQCK | 2.71 ± 0.2 |
| KILNPERRSNGWVMMKFVVD | -0.599 ± 1 |
| KIVSWAMIIARVVYCDQDL | inactive |
| KIWHLSQYCAVFSLVFKGLN | 2.41 ± 0.15 |
| KKDSSWFRLNDKKVVSSHKR | -0.215 ± 0.2 |
| KKLALKVVVSNCFKK | 5.991 ± 0.048 |
| KKSRNPHGKFTWTFGFVKKL | -1.76 ± 1.1 |
| KLANV | inactive |
| KLGVKLASTLGISRLPHTTS | 0.827 ± 0.23 |
| KLIHWIILVWFSSGTLPCND | -0.133 ± 0.5 |
| KLMFRHV | 5.01 ± 0.081 |
| KLNCMRGLPGLCPRWFIIAC | 0.089 ± 1.1 |
| KLPFICINRGWWLVGRINSS | 3.07 ± 0.18 |
| KLQFVGFCTNDAKYKGRIPG | 2.35 ± 0.089 |
| KLYKCQRQCPALAKVTYGYK | 0.332 ± 0.27 |
| KMCLIRYMHNPKVGIRLGRS | 0.102 ± 0.33 |
| KMHCGFDFEWVTTYNTTIVR | -0.369 ± 0.47 |
| KMHLAQ | inactive |
| KMKFKKENFC | -0.858 ± 1 |
| KMMLSTRSQYPS | 0.489 ± 0.36 |
| KMQMLWTGVCRVLFVAPQPN | 0.319 ± 0.36 |

| Substance | amyloid nucleation score |
| --- | --- |
| KMTYP | 2.14 ± 0.13 |
| KNNRVAFTLYFSQTARDWMH | 5.156 ± 0.046 |
| KNNTADWWIRSNSERYRN | -0.039 ± 0.46 |
| KNSWAAVPRSEEYCREVIGH | 0.482 ± 0.56 |
| KPFFEKFVSTLGLWFEQLKS | -0.574 ± 0.42 |
| KPWVTLLVCCSVYRFFMYYA | 4.96 ± 0.081 |
| KQLFSLISYVG | -1.4 ± 1.1 |
| KQLMRGIWDRG | -0.217 ± 0.79 |
| KRCYCIKGVCNLNGISPKVK | -0.468 ± 0.36 |
| KRFYMT | 1.31 ± 0.081 |
| KRRSQIRMTNDNLASVNMKN | 1.43 ± 0.096 |
| KRSLLQKLCC | -0.421 ± 0.61 |
| KRSVAVFRRCV | 0.817 ± 0.44 |
| KRVGTYEVKI | -0.253 ± 0.55 |
| KRWQVLFDRSRKYCRVGKT | 0.161 ± 0.56 |
| KSDTMLRDYKKWVGHELYTR | 0.066 ± 0.54 |
| KSGLTQLLQILSSCLELGIW | 0.38 ± 0.51 |
| KSLYIGSAY | 1 ± 0.42 |
| KSQRKVIGTLLKVYWPWGCM | 0.654 ± 0.25 |
| KSTVIMSDTFLR | -0.271 ± 1 |
| KSVRIWPSVSAGTRRLKQS | inactive |
